Source: patent US12679878B2, “CRF2 receptor agonists and their use in therapy” (SANOFI, priority 2020, dated 2026)
Each block holds one molecule with its values, some of them ahead of it. Starred links: 1 amine or outer side, 2 acyl side, 3 side chain; linkers in the order of their positions; H or OH if unused. Non-standard residues stand in square brackets, D forms with d. Residues, ends and D or L forms follow the SMILES beside them. Groups on a side chain read outwards from the residue. No end group written: not given here. *: point of attachment. C18 diacid = O=C(O)CCCCCCCCCCCCCCCCC(=O)*; γGlu = O=C(O)[C@H](CCC(=O)[*:2])N[*:1]; Palmitoyl = CCCCCCCCCCCCCCCC(=O)*; AEEA = NCCOCCOCC(=O)O; Aib = CC(C)(N)C(=O)O

What was measured:
[1] = molecular target: T1, human CRF2α receptor (Homo sapiens, UniProt Q13324); assay: cAMP agonism at human CRF2 α receptor in TeloHEAC cells (Example 7); type: cell-based; settings: cAMP HTRF, TeloHEAC cells stably expressing human CRF2 α, 0% HSA; read-out: EC50 [nM], 0% HSA
T1 construct: expressed in transfected cells; host or cells: TeloHEAC
T1 sequence (Q13324 1-411): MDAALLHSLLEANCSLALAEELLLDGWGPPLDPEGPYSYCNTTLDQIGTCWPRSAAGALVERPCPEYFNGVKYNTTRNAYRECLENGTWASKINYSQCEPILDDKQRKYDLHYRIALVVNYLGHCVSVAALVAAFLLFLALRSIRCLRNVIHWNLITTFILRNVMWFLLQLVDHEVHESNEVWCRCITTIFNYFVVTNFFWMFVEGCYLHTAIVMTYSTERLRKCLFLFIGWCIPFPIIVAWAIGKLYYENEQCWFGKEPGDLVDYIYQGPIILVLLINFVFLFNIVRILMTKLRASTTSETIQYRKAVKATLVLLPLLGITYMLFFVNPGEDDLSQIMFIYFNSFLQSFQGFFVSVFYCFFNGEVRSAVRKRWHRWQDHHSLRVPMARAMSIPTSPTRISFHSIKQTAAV
Procedure: Agonism of compounds for human corticotropin-releasing factor 2α (CRF2 α receptor) was determined by functional assays measuring CAMP response of a TeloHEAC cell line stably expressing human CRF2 α receptor.
Cells were grown in a T175 culture flask placed at 37° C. to near confluence in medium (DMEM/10% FBS) and collected in 2 ml vials in cell culture medium containing 10% DMSO in a concentration of 10-50 million cells/ml. Each vial contained 1.8 ml cells. The vials were slowly frozen to −80° C. in isopropanol and then transferred in liquid nitrogen for storage. Prior to use, frozen cells were thawed quickly at 37° C. and washed (5 min at 900 rpm) with 20 ml cell buffer (1×HBSS; 20 mM HEPES; 0% or 0.1% HSA). Cells were resuspended in assay buffer (cell buffer plus 2 mM IBMX) and adjusted to a cell density of 1 million cells/ml. For measurement, 5 μl cells (final […]) and 5 μL of test compound were added to a 384-well plate, followed by incubation for 30 minutes at room temperature.
The CAMP content of cells was determined using a kit from Cisbio Corp. (cat. no. 62AM4PEC) based on HTRF (Homogenous Time Resolved Fluorescence). After addition of HTRF reagents diluted in lysis buffer (kit components), the plates were incubated for 1 h, followed by measurement of the fluorescence ratio at 665/620 nm. The percent activity value (E %) was calculated by setting 1000 nM of urocortin 2 (UCN2) as 100%. The in vitro potency of the compounds was quantified by determining the concentrations that caused 50% activation of maximal response (EC50).

[2] = molecular target: human corticotropin-releasing factor 2α (CRF2 α receptor) (human), Q13324; assay: cell-based or functional assay

- EC50 [1]: 0.01 nM
Molecule: CCCCCCCCCCCCCCCC(=O)N[C@@H](CCC(=O)NCCCC[C@H](NC(=O)[C@H](CC(C)C)NC(=O)[C@H](CCCCN)NC(=O)[C@@H](NC(=O)[C@@H]1CCCN1C(=O)[C@H](NC(=O)[C@H](CC(=O)O)NC(=O)[C@H](CC(C)C)NC(=O)[C@H](CO)NC(=O)[C@H](CC(C)C)NC(=O)[C@@H](NC(=O)[C@@H](N)[C@@H](C)CC)C(C)C)C(C)C)[C@@H](C)O)C(=O)N[C@@H](CCC(N)=O)C(=O)N[C@@H](CCCCN)C(=O)N[C@@H](CC(C)C)C(=O)N[C@@H](CC(C)C)C(=O)N[C@@H](CCCCN)C(=O)N[C@@H](CCC(N)=O)C(=O)N[C@@H](CCC(=O)O)C(=O)N[C@@H](CCCNC(=N)N)C(=O)N[C@@H](CCC(N)=O)C(=O)N[C@@H](CCCNC(=N)N)C(=O)N[C@@H](CCCCN)C(=O)N[C@@H](CCC(=O)O)C(=O)N[C@@H](CCCNC(=N)N)C(=O)N[C@@H](CCC(=O)O)C(=O)N[C@@H](CCC(N)=O)C(=O)N[C@@H](C)C(=O)N[C@@H](CCC(=O)O)C(=O)N[C@@H](CCCCN)C(=O)N[C@@H](CC(N)=O)C(=O)NC(C)(C)C(=O)N[C@@H](CCCNC(=N)N)C(=O)N[C@H](C(=O)N[C@@H](CC(C)C)C(=O)N[C@@H](CCC(=O)O)C(=O)N[C@@H](CCCNC(=N)N)C(=O)N[C@H](C(N)=O)C(C)C)[C@@H](C)CC)C(=O)O [compound 31] (H-IVLSLD[dV]PTKLK([γGlu-Palmitoyl])QKLLKQERQRKEREQAEKN[Aib]RILERV-NH2; N-terminus assumed)

- EC50 [1]: 0.2 nM
Molecule: CCCCCCCCCCCCCCCC(=O)N[C@@H](CCC(=O)NCCCC[C@H](NC(=O)[C@H](CC(C)C)NC(=O)[C@H](CCCCN)NC(=O)[C@@H](NC(=O)[C@@H]1CCCN1C(=O)[C@H](NC(=O)[C@H](CC(=O)O)NC(=O)[C@H](CC(C)C)NC(=O)[C@H](CO)NC(=O)[C@H](CC(C)C)NC(=O)[C@@H](NC(=O)[C@@H](N)[C@@H](C)CC)C(C)C)C(C)C)[C@@H](C)O)C(=O)N[C@@H](CCC(N)=O)C(=O)N[C@@H](CCCCN)C(=O)N[C@@H](CC(C)C)C(=O)N[C@@H](CC(C)C)C(=O)N[C@@H](CCCCN)C(=O)N[C@@H](CCC(N)=O)C(=O)N[C@@H](CCC(=O)O)C(=O)N[C@@H](CCCNC(=N)N)C(=O)N[C@@H](CCC(N)=O)C(=O)N[C@@H](CCCNC(=N)N)C(=O)N[C@@H](CCCCN)C(=O)N[C@@H](CCC(=O)O)C(=O)N[C@@H](CCCNC(=N)N)C(=O)N[C@@H](CCC(=O)O)C(=O)N[C@@H](CCC(N)=O)C(=O)N[C@@H](C)C(=O)N[C@@H](CCC(=O)O)C(=O)N[C@@H](CCCCN)C(=O)N[C@@H](CC(N)=O)C(=O)N[C@H](C(=O)N[C@@H](CCCNC(=N)N)C(=O)N[C@H](C(=O)N[C@@H](CC(C)C)C(=O)N[C@@H](CCC(=O)O)C(=O)N[C@@H](CCCNC(=N)N)C(=O)N[C@H](C(N)=O)C(C)C)[C@@H](C)CC)[C@@H](C)O)C(=O)O [compound 33] (H-IVLSLD[dV]PTKLK([γGlu-Palmitoyl])QKLLKQERQRKEREQAEKNTRILERV-NH2)

Second part, the molecule before the results:

Molecule: CCCCCCCCCCCCCCCC(=O)N[C@@H](CCC(=O)NCCCC[C@H](NC(=O)[C@H](CC(C)C)NC(=O)CNC(=O)[C@@H](NC(=O)[C@@H]1CCCN1C(=O)[C@@H](NC(=O)[C@H](CC(=O)O)NC(=O)[C@H](CC(C)C)NC(=O)[C@H](CO)NC(=O)[C@H](CC(C)C)NC(=O)[C@@H](NC(=O)[C@@H](N)[C@@H](C)CC)C(C)C)C(C)C)[C@@H](C)CC)C(=O)N[C@@H](CCC(N)=O)C(=O)N[C@H](C(=O)N[C@@H](CC(C)C)C(=O)N[C@@H](CC(C)C)C(=O)N[C@@H](CCC(=O)O)C(=O)N[C@@H](CCC(N)=O)C(=O)N[C@@H](CCC(=O)O)C(=O)N[C@@H](CCCCN)C(=O)N[C@@H](CCC(N)=O)C(=O)N[C@@H](CCC(=O)O)C(=O)N[C@@H](CCCCN)C(=O)N[C@@H](CCC(=O)O)C(=O)N[C@@H](CCCCN)C(=O)N[C@@H](CCC(N)=O)C(=O)N[C@@H](CCC(N)=O)C(=O)N[C@@H](C)C(=O)N[C@@H](CCC(=O)O)C(=O)N[C@H](C(=O)N[C@@H](CC(N)=O)C(=O)N[C@@H](C)C(=O)N[C@@H](CCC(N)=O)C(=O)N[C@H](C(=O)N[C@@H](CC(C)C)C(=O)N[C@@H](C)C(=O)N[C@@H](CCC(N)=O)C(=O)N[C@H](C(N)=O)C(C)C)[C@@H](C)CC)[C@@H](C)O)[C@@H](C)CC)C(=O)O [compound 1] (H-IVLSLDVPIGLK([γGlu-Palmitoyl])QILLEQEKQEKEKQQAETNAQILAQV-NH2; N-terminus assumed)
- EC50 [1]: 0.01 nM

B1: SEQ ID NO: 83 (peptide)
peptide: IVLSLD[dV]PIGLK([AEEA-AEEA-γGlu-C18 diacid])QILLKQERQKK[Aib]REQAETNKRILERV-NH2
modifications: N-terminus assumed
SMILES: CC[C@H](C)[C@H](N)C(=O)N[C@H](C(=O)N[C@@H](CC(C)C)C(=O)N[C@@H](CO)C(=O)N[C@@H](CC(C)C)C(=O)N[C@@H](CC(=O)O)C(=O)N[C@@H](C(=O)N1CCC[C@H]1C(=O)N[C@H](C(=O)NCC(=O)N[C@@H](CC(C)C)C(=O)N[C@@H](CCCCNC(=O)COCCOCCNC(=O)COCCOCCNC(=O)CC[C@H](NC(=O)CCCCCCCCCCCCCCCCC(=O)O)C(=O)O)C(=O)N[C@@H](CCC(N)=O)C(=O)N[C@H](C(=O)N[C@@H](CC(C)C)C(=O)N[C@@H](CC(C)C)C(=O)N[C@@H](CCCCN)C(=O)N[C@@H](CCC(N)=O)C(=O)N[C@@H](CCC(=O)O)C(=O)N[C@@H](CCCNC(=N)N)C(=O)N[C@@H](CCC(N)=O)C(=O)N[C@@H](CCCCN)C(=O)N[C@@H](CCCCN)C(=O)NC(C)(C)C(=O)N[C@@H](CCCNC(=N)N)C(=O)N[C@@H](CCC(=O)O)C(=O)N[C@@H](CCC(N)=O)C(=O)N[C@@H](C)C(=O)N[C@@H](CCC(=O)O)C(=O)N[C@H](C(=O)N[C@@H](CC(N)=O)C(=O)N[C@@H](CCCCN)C(=O)N[C@@H](CCCNC(=N)N)C(=O)N[C@H](C(=O)N[C@@H](CC(C)C)C(=O)N[C@@H](CCC(=O)O)C(=O)N[C@@H](CCCNC(=N)N)C(=O)N[C@H](C(N)=O)C(C)C)[C@@H](C)CC)[C@@H](C)O)[C@@H](C)CC)[C@@H](C)CC)C(C)C)C(C)C
- EC50 [nM], 0% HSA [2]: 0.07 nM
- EC50 [nM], 0.1% HSA [2]: 2.99 nM

B2: SEQ ID NO: 84 (peptide)
peptide: IVLSLDVPIKLK([AEEA-AEEA-γGlu-C18 diacid])QKLLEQEKQKKQREQAETNKQILAQV-NH2
modifications: N-terminus assumed
SMILES: CC[C@H](C)[C@H](N)C(=O)N[C@H](C(=O)N[C@@H](CC(C)C)C(=O)N[C@@H](CO)C(=O)N[C@@H](CC(C)C)C(=O)N[C@@H](CC(=O)O)C(=O)N[C@H](C(=O)N1CCC[C@H]1C(=O)N[C@H](C(=O)N[C@@H](CCCCN)C(=O)N[C@@H](CC(C)C)C(=O)N[C@@H](CCCCNC(=O)COCCOCCNC(=O)COCCOCCNC(=O)CC[C@H](NC(=O)CCCCCCCCCCCCCCCCC(=O)O)C(=O)O)C(=O)N[C@@H](CCC(N)=O)C(=O)N[C@@H](CCCCN)C(=O)N[C@@H](CC(C)C)C(=O)N[C@@H](CC(C)C)C(=O)N[C@@H](CCC(=O)O)C(=O)N[C@@H](CCC(N)=O)C(=O)N[C@@H](CCC(=O)O)C(=O)N[C@@H](CCCCN)C(=O)N[C@@H](CCC(N)=O)C(=O)N[C@@H](CCCCN)C(=O)N[C@@H](CCCCN)C(=O)N[C@@H](CCC(N)=O)C(=O)N[C@@H](CCCNC(=N)N)C(=O)N[C@@H](CCC(=O)O)C(=O)N[C@@H](CCC(N)=O)C(=O)N[C@@H](C)C(=O)N[C@@H](CCC(=O)O)C(=O)N[C@H](C(=O)N[C@@H](CC(N)=O)C(=O)N[C@@H](CCCCN)C(=O)N[C@@H](CCC(N)=O)C(=O)N[C@H](C(=O)N[C@@H](CC(C)C)C(=O)N[C@@H](C)C(=O)N[C@@H](CCC(N)=O)C(=O)N[C@H](C(N)=O)C(C)C)[C@@H](C)CC)[C@@H](C)O)[C@@H](C)CC)C(C)C)C(C)C
- EC50 [nM], 0% HSA [2]: 1.85 nM
- EC50 [nM], 0.1% HSA [2]: 61.7 nM
